Values belong to the molecule of their own block, whether it stands above or below them. No end group written: not given here.
Experiments:
GPCR142 [1] = target: T1, GPCR142 (Homo sapiens, UniProt Q8TDU9, L329S); experiment: Radioligand binding assay with 125I-relaxin3 (saturation and competition), COS-7 cell membranes; design: The complete coding region of human GPCR142 was PCR-amplified from human genomic DNA; expressed in transfected cells; conditions: competition binding, COS-7 membranes
Experimental: (§1) The binding mixtures were incubated at room temperature for 1 h and then were filtered through 96-well GFC plates (Packard) and washed with ice-cold washing buffer: 50 mM Tris-HCl, pH 7.4. Fifty microliters of Microscint-40 were added to each well and the plates were counted in a Topcounter NTX (Packard). The radioligand binding results were analyzed using GraphPad PRISM software.
The binding assays were performed at room temperature for an incubation time of one hour. The binding mixtures were then filtered through GFC filters pre-saturated with 0.3 polyethylenimine (Sigma) and washed with cold binding buffer. The bound radioligand was counted in a top counter (TopCount/NTX, Packard) with Microscint-40. The results were analyzed by Prism 3.0 software.

GPCR142 [2] = target: T1, GPCR142; experiment: GTPγS binding assay, GPCR142 expressing cell membranes; type: biochemical; design: The complete coding region of human GPCR142 was PCR-amplified from human genomic DNA; expressed in transfected cells; CHO membranes (GTPγS); HEK293 co-transfected with Gα16 (Ca2+)
Experimental: The GPCR142 expression vector described above was transfected into CHO cells using Lipofectamine (Invitrogen) according to the manufacturer's instructions. Two days after transfection, the cells were harvested and the cell membranes were prepared by homogenizing the cells in cold 50 mM Tris-HCl, 5 mM EDTA, pH 7.5 followed by centrifugation at 4° C. 1000 g for 10 min. The supernatant was centrifuged at 4° C. 20,000 g for 30 min and the pellet was re-suspended in GTPγS binding buffer: 50 mM Tris-HCl, pH 7.4, 10 mM MgCl2, 1 mM EDTA, pH 8.0, and 100 mM NaCl using a polytron tissue homogenizer. Protease inhibitors were added to the buffer at concentrations of 1 mM PMSF, 10 μg/ml of pepstatin A, 10 μg/ml of leupeptin. Cell membranes and different concentrations of ligands were added to 96-well plates and incubated at room temperature for 20 min. ^35S-GTPγS (NEN) was then added to each well at a final concentration of […] in a final volume of 200 μL. The reactions were allowed to proceed at room temperature for 1 h, and then the mixtures were filtered though a 96-well GFC filter plate (Packard) and washed with cold washing buffer: 50 mM Tris-HCl, pH 7.4, 10 mM MgCl2. Fifty microliters of Microscint-40 (Packard) was added to each well and the plate was counted on a top counter (TopCount NTX, Packard).

GPCR142 [3] = target: T1, GPCR142; experiment: Inhibition of forskolin-stimulated cAMP (CRE-β-galactosidase) in SK-N-MC cells; type: cell-based; design: The complete coding region of human GPCR142 was PCR-amplified from human genomic DNA; expressed in transfected cells; HEK293 co-transfected with Gqi5 (Ca2+); conditions: SK-N-MC cells stably expressing GPCR142
Experimental: SK-N-MC cells stably expressing GPCR142 were established by transfection of GPCR142 expressing plasmids into SK-N-MC cells harboring a β-galactosidase gene under control of multiple cAMP responsive elements. The stable transfectants were selected by culturing the transfected cells under G418 selection (400 mg/L). The receptor expressing cells were seeded in 96-well plates at a cell density of 30,000 cells/well. After 24 h, cells were stimulated with forskolin or different peptides. Cells were cultured for an additional 6 h and the intracellular β-gal activity, which represents the intracellular cAMP accumulation, was measured as described by Liu et al. (2000), Mol. Pharmacol., 59, 420-426.

GPCR142 [4] = target: T1, GPCR142; experiment: Ca2+ mobilization assay (FLIPR), HEK293 cells co-expressing GPCR142 and Gα16; type: cell-based; design: The complete coding region of human GPCR142 was PCR-amplified from human genomic DNA; expressed in transfected cells; HEK293 co-transfected with Gα16 (Ca2+)
Experimental: Human embryonic kidney (HEK) 293 cells were transfected with GPCR135,.GPCR142 or co-transfected with Gqi5 (Conklin et al. (1993), Nature 363, 274-280) or Gα16 (Amatruda et al. (1991), Proc. Natl. Acad. Sci. U.S.A. 88, 5587-5591) expressing plasmids using LipofectAmine. Two days after transfection, cells were detached with PBS plus 10 mM EDTA. The detached cells were washed with DMEM-F12 medium (without phenol red, Invitrogen) and seeded in black poly-D lysine coated 96-well plates (BD Biosciences, San Jose, Calif.) at a cell density of 50,000 cell/well.

human GPCR142 [5] = target: T2, human GPCR142 (human, UniProt Q8TDU9 1-374); experiment: competition binding with ^125I-relaxin3, membranes of COS-7 cells expressing GPCR142
T2 construct: Expressed in COS-7, CHO, SK-N-MC or HEK293 cells
Experimental: as §1, with “(Packard).” for “(Packard). The radioligand binding results were analyzed using GraphPad PRISM software.”

human GPCR142 [6] = target: T2, human GPCR142; experiment: saturation radioligand binding, membranes of COS-7 cells transiently expressing GPCR142
Experimental: as §1, with “(Packard).” for “(Packard). The radioligand binding results were analyzed using GraphPad PRISM software.”

human GPCR142 [7] = target: T2, human GPCR142; experiment: cell-based or functional assay
human GPCR142 [8] = target: T2, human GPCR142; experiment: competition binding with ^125I-relaxin3, membranes of COS-7 cells transiently expressing GPCR142
Experimental: as §1, with “(Packard).” for “(Packard). The radioligand binding results were analyzed using GraphPad PRISM software.”

T1 sequence (Q8TDU9 whole entry L329S): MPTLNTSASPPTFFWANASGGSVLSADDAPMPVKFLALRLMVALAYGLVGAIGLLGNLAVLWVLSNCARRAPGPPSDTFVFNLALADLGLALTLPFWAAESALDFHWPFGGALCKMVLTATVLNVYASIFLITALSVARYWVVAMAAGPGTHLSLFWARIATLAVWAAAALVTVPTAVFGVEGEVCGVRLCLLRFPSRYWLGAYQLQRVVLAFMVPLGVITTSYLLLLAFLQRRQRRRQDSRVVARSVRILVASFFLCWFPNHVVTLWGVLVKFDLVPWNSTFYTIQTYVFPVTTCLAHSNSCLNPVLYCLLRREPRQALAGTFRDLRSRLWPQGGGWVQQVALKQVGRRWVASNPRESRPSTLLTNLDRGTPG
T2 sequence (Q8TDU9 whole entry L329S): as above

Molecule: CC[C@H](C)[C@@H]1NC(=O)[C@H](Cc2ccccc2)NC(=O)[C@H](CCC(=O)O)NC(=O)[C@H](CCCNC(=N)N)NC(=O)CNC(=O)[C@@H](NC(=O)[C@H](CC(C)C)NC(=O)[C@H](CCCNC(=N)N)NC(=O)[C@@H](NC(=O)CNC(=O)[C@H](Cc2ccc(O)cc2)NC(=O)[C@@H]2CCCN2C(=O)[C@H](C)NC(=O)[C@H](C)NC(=O)[C@@H](N)CCCNC(=N)N)C(C)C)CSSC[C@@H](C(=O)NCC(=O)NCC(=O)N[C@@H](CO)C(=O)N[C@@H](CCCNC(=N)N)C(=O)N[C@@H](Cc2c[nH]c3ccccc23)C(=O)O)NC(=O)[C@H]([C@@H](C)O)NC(=O)[C@H](Cc2ccccc2)NC(=O)[C@H]([C@@H](C)CC)NC(=O)[C@H](C(C)C)NC(=O)[C@H](C)NC(=O)[C@H](CCCNC(=N)N)NC1=O [relaxin3 B-chain, reference compound]
displacement of 125I-relaxin3 binding to GPCR142 (GPCR142 [1]): displaced
stimulation of 35S-GTPγS binding (agonist activity) (GPCR142 [2]): stimulate
inhibition of forskolin induced β-galactosidase expression (GPCR142 [3]): showed ligand activity, albeit with a significantly lower potency

Molecule: INSL5: Human INSL5 (SEQ ID NO: 5), recombinantly expressed in COS-7 cells, relaxin/insulin superfamily peptide (KESVRLCGLEYIRTVIYICASSRWQDLQTLCCTDGCSMTDLSALC; ends and bridges not checked; cysteine pairing not given here; listed as Homo sapiens)
displacement of 125I-relaxin3 binding to GPCR142 (GPCR142 [1]): specifically displaced
stimulation of 35S-GTPγS binding (agonist activity) (GPCR142 [2]): stimulated GTPγS binding
stimulation of Ca2+ mobilization (GPCR142 [4]): stimulated Ca2+ mobilization
inhibition of forskolin induced β-galactosidase expression (GPCR142 [3]): dose-dependently inhibits

B4: relaxin3 B-chain (peptide, UniProt Q8WXF3 26-52, looked up)
peptide: RAAPYGVRLCGREFIRAVIFTCGGSRW
modifications: not fully specified (bridges); ends and bridges not checked; also: oxidized
notes: domain: B-chain; Bought peptide; also called oxidized relaxin-3 B-chain peptide
EC50, GTPγS binding assay (human GPCR142 [7]): ~100 nM
Ki (human GPCR142 [8]): 85 nM

B5: Human INSL4 (ligand)
chain 1: AELRGCGPRFGKHLLSYCPMPEKTFTTTPGGWL
chain 2: SGRHRFDPFCCEVICDDGTSVKLCT
binding result (human GPCR142 [5]): no binding

Further lines, results first:

binding result (human GPCR142 [5]): no binding
B1: Porcine relaxin (ligand)
chain 1: QSTNDFIKACGRELVRLWVEICGSVSWGRTAL
chain 2: RMTLSEKCCQVGCIRKDIARLC
notes: The results paragraph prints only 'relaxin'

binding result (human GPCR142 [5]): no binding
B2: relaxin3 A-chain (peptide, UniProt Q8WXF3 119-142, looked up)
peptide: DVLAGLSSSCCKWGCSKSEISSLC
modifications: ends and bridges not checked; also: oxidized
notes: domain: A-chain; Bought peptide; also called oxidized relaxin-3 A-chain peptide

Kd (human GPCR142 [6]): 1.9 nM
B3: ^125I-relaxin3 (ligand)
chain 1: RAAPYGVRLCGREFIRAVIFTCGGSRW
chain 2: DVLAGLSSSCCKWGCSKSEISSLC
modifications: ends and bridges not checked; also: 125I label, residue not given here
notes: also called radioligand; tracer
